Results on one substance are retold here after paper PMC11578894.

This experiment deals with His6–Gp54^Bas11 (phage Bas11). As to the kind of experiment: ITC; CapRel^SJ46 in the syringe at 200 µM titrated into Gp54^Bas11 in the cell at 10 µM (Gp54^Bas11(G24D) was used at 260 µM); 30 °C; 50 mM HEPES pH 7.5, 500 mM KCl, 500 mM NaCl, 2 mM MgCl2, 1 mM TCEP. For orientation: In ITC the heat of successive injections is recorded.

Broadly, the Kd is the constant that tells how readily two partners part at equilibrium. In general, stoichiometry N refers to a count of units in the complex or per binding partner. In the case of His6–MBP–CapRel^SJ46 (natural protein), the Kd amounted to 800 nM and the stoichiometry N amounted to 1.
